The text below walks through data of patent US20150166621A1 (Hoffmann-La Roche, published 2015).

B1: peptide of SEQ ID NO: 85 (peptide)
peptide: Ac-KRKRFDREFLLAFQF[Nle]-NH2
SMILES: CCCC[C@H](NC(=O)[C@H](Cc1ccccc1)NC(=O)[C@H](CCC(N)=O)NC(=O)[C@H](Cc1ccccc1)NC(=O)[C@H](C)NC(=O)[C@H](CC(C)C)NC(=O)[C@H](CC(C)C)NC(=O)[C@H](Cc1ccccc1)NC(=O)[C@H](CCC(=O)O)NC(=O)[C@H](CCCNC(=N)N)NC(=O)[C@H](CC(=O)O)NC(=O)[C@H](Cc1ccccc1)NC(=O)[C@H](CCCNC(=N)N)NC(=O)[C@H](CCCCN)NC(=O)[C@H](CCCNC(=N)N)NC(=O)[C@H](CCCCN)NC(C)=O)C(N)=O
B2: peptide of SEQ ID NO: 78 (peptide)
peptide: Ac-Y[Nva]LLAFQF[Nle]-NH2
SMILES: CCCC[C@H](NC(=O)[C@H](Cc1ccccc1)NC(=O)[C@H](CCC(N)=O)NC(=O)[C@H](Cc1ccccc1)NC(=O)[C@H](C)NC(=O)[C@H](CC(C)C)NC(=O)[C@H](CC(C)C)NC(=O)[C@H](CCC)NC(=O)[C@H](Cc1ccc(O)cc1)NC(C)=O)C(N)=O
B3: peptide of SEQ ID NO: 80 (peptide)
peptide: Ac-KRYDREFLLAFQF[Nle]-NH2
SMILES: CCCC[C@H](NC(=O)[C@H](Cc1ccccc1)NC(=O)[C@H](CCC(N)=O)NC(=O)[C@H](Cc1ccccc1)NC(=O)[C@H](C)NC(=O)[C@H](CC(C)C)NC(=O)[C@H](CC(C)C)NC(=O)[C@H](Cc1ccccc1)NC(=O)[C@H](CCC(=O)O)NC(=O)[C@H](CCCNC(=N)N)NC(=O)[C@H](CC(=O)O)NC(=O)[C@H](Cc1ccc(O)cc1)NC(=O)[C@H](CCCNC(=N)N)NC(=O)[C@H](CCCCN)NC(C)=O)C(N)=O
B4: peptide of SEQ ID NO: 84 (peptide)
peptide: Ac-KRFDREFLLAFQF[Nle]-NH2
SMILES: CCCC[C@H](NC(=O)[C@H](Cc1ccccc1)NC(=O)[C@H](CCC(N)=O)NC(=O)[C@H](Cc1ccccc1)NC(=O)[C@H](C)NC(=O)[C@H](CC(C)C)NC(=O)[C@H](CC(C)C)NC(=O)[C@H](Cc1ccccc1)NC(=O)[C@H](CCC(=O)O)NC(=O)[C@H](CCCNC(=N)N)NC(=O)[C@H](CC(=O)O)NC(=O)[C@H](Cc1ccccc1)NC(=O)[C@H](CCCNC(=N)N)NC(=O)[C@H](CCCCN)NC(C)=O)C(N)=O
B5: peptide of SEQ ID NO: 70 (peptide)
peptide: Ac-YDREFLLDFQF[Nle]-NH2
SMILES: CCCC[C@H](NC(=O)[C@H](Cc1ccccc1)NC(=O)[C@H](CCC(N)=O)NC(=O)[C@H](Cc1ccccc1)NC(=O)[C@H](CC(=O)O)NC(=O)[C@H](CC(C)C)NC(=O)[C@H](CC(C)C)NC(=O)[C@H](Cc1ccccc1)NC(=O)[C@H](CCC(=O)O)NC(=O)[C@H](CCCNC(=N)N)NC(=O)[C@H](CC(=O)O)NC(=O)[C@H](Cc1ccc(O)cc1)NC(C)=O)C(N)=O
B6: peptide of SEQ ID NO: 74 (peptide)
peptide: Ac-YNREFLLDFQF[Nle]-NH2
SMILES: CCCC[C@H](NC(=O)[C@H](Cc1ccccc1)NC(=O)[C@H](CCC(N)=O)NC(=O)[C@H](Cc1ccccc1)NC(=O)[C@H](CC(=O)O)NC(=O)[C@H](CC(C)C)NC(=O)[C@H](CC(C)C)NC(=O)[C@H](Cc1ccccc1)NC(=O)[C@H](CCC(=O)O)NC(=O)[C@H](CCCNC(=N)N)NC(=O)[C@H](CC(N)=O)NC(=O)[C@H](Cc1ccc(O)cc1)NC(C)=O)C(N)=O

Square brackets hold non-standard residues; d marks the D form. Nle = CCCC[C@H](N)C(=O)O; Mamp = not defined here; Nva = CCC[C@H](N)C(=O)O

The assay deals with T1, Human eIF4E (aa 28-217) with a C-terminal His tag (human, UniProt P06730 28-217).
T1 construct: also called HH-eIF4E; eukaryotic initiation factor 4E
T1 sequence (P06730 other isoform, or with tags, fused parts or gaps limits assumed): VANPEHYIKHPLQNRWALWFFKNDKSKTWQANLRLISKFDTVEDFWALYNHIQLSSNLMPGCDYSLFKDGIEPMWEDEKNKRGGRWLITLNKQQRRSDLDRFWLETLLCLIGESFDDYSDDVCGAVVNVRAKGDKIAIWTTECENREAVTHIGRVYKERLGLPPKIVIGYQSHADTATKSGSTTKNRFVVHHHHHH
The experiment in a line: TR-FRET competition vs biotin-4G2 peptide on HH-eIF4E.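 Also: peptide inhibitors measured in sodium phosphate buffer at pH 6.5 containing KCl, DTT, NP40 and gammaglobulin, with a 20 min incubation at room temperature.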
Experimental: Test peptides (1.6 mM stock in DMSO) were diluted 3 fold in series in DMSO and solutions were diluted 4 fold in Assay Buffer (50 mM NaPi, pH 6.5, 50 mM KCl, 1 mM DTT, 0.004% NP40 and 0.5 mg/ml gammaglobulin). […] The samples were incubated at room temperature for 20 minutes.
IC50 values were calculated using Condoseo software (Genedata AG, Basel, Switzerland).
What is called IC50 is the point on the concentration scale where inhibition reaches its midpoint. In the case of Ac-KQYDREFLLDFQFM-NH2 [peptide of SEQ ID NO: 54], the IC50 was found to be 8.84 µM.

Turning to Ac-KQYDREFLLDFQFMP[dA]-NH2 [peptide of SEQ ID NO: 64], the IC50 came out at 8.69 µM.

Molecule B1 gave an IC50 of 0.32 µM.

As to Ac-QYDREFLLDFQFMPA-NH2 [peptide of SEQ ID NO: 81], the IC50 was 8.68 µM.

The molecule Ac-KQYDREFLLDFQFM[dP]A-NH2 [peptide of SEQ ID NO: 65] returned an IC50 of 7.69 µM.

With Ac-KQYDREFLLDFQF[dM]PA-NH2 [peptide of SEQ ID NO: 66], the half-maximal inhibitory concentration (IC50) is 7.75 µM.

Turning to Ac-YDREFLLDFQFMPA-NH2 [peptide of SEQ ID NO: 82], the IC50 stood at 7.52 µM.

For the molecule Ac-KQYDREFLLDFQ[dF]MPA-NH2 [peptide of SEQ ID NO: 67], the IC50 is 13.7 µM.

Take Ac-Y[Mamp]LLAFQF[Nle]-NH2 (reading uncertain) [peptide of SEQ ID NO: 77]: the IC50 worked out at 5.35 µM.

Ac-KQYDREFLLDFQFMP-NH2 [peptide of SEQ ID NO: 53] came in with a half-inhibitory concentration (IC50) of 7.46 µM.

The molecule B2 yielded an IC50 of 6.63 µM.

Turning to B3, the IC50 stood at 0.643 µM.

B4: the IC50 came out at 4.07 µM.

As for Ac-YDREFLLDFQF-NH2 [peptide of SEQ ID NO: 69], the IC50 worked out at 12.4 µM.

Ac-KQYDREFLLDFQFMPA-NH2 [peptide of SEQ ID NO: 52] had an IC50 of 10.5 µM.

Regarding Ac-KQYDREFLLDFQFMAA-NH2 [peptide of SEQ ID NO: 57], the IC50 is 6.96 µM.

As to Ac-KQYDREFLLAFQFMPA-NH2 [peptide of SEQ ID NO: 59], the IC50 was determined as 1.42 µM.

Ac-KQYDRAFLLDFQFMPA-NH2 [peptide of SEQ ID NO: 60]: the IC50 was 9.26 µM.

Take Ac-AQYDREFLLDFQFMPA-NH2 [peptide of SEQ ID NO: 63]: the IC50 was found to be 12.3 µM.

Take Ac-KQYDREFLLDFQFAPA-NH2 [peptide of SEQ ID NO: 58]: the IC50 turned out to be 11.3 µM.

Molecule Ac-KAYDREFLLDFQFMPA-NH2 [peptide of SEQ ID NO: 62] displayed a half-maximal inhibitory concentration (IC50) of 13.6 µM.

Molecule Ac-KQYAREFLLDFQFMPA-NH2 [peptide of SEQ ID NO: 61] yielded an IC50 of 11.8 µM.

B5: the IC50 came to 3.39 µM.

Consider Ac-YDREFLLDFQFM-NH2 [peptide of SEQ ID NO: 68], for which the IC50 was 13.1 µM.

In turn, YDRQFLLDFQFL (N-terminal Ac; Nle at 12; C-terminal NH2) [peptide of SEQ ID NO: 71] registered a 50% inhibitory concentration (IC50) of 11 µM.

Molecule YNRQFLLDFQFL (N-terminal Ac; Nle at 12; C-terminal NH2) [peptide of SEQ ID NO: 75] yielded an IC50 of 11 µM.

The molecule B6 yielded an IC50 of 10.9 µM.

Molecule Ac-Y[Mamb]LLAFQF[Nle]-NH2 [peptide of SEQ ID NO: 76] came in with an IC50 of 12 µM.

Consider Ac-F[5Ava]LLAFQF[Nle]-NH2 [peptide of SEQ ID NO: 79], for which the IC50 was found to be 9.34 µM.

For the molecule Ac-[dK]QYDREFLLDFQFMPA-NH2 [peptide of SEQ ID NO: 83], the IC50 was 1.67 µM.
